Data from publication PMC8266076.

Legend:
Experiment in all cases: fluorescence anisotropy
Settings in all cases: fluorescein-12-UTP incorporated during transcription; 50 mM Tris pH 7.5, 40 mM KCl, 10 mM MgCl2, 1 mM DTT, 10 nM fluorescein-labeled RNA, 21 C
[1] = system: A3C-A3Hhap II (synthetic double domain chimera) (Homo sapiens (synthetic chimera))
A3G (Homo sapiens) = system: A3G (Homo sapiens)
A3Hhap II (Homo sapiens) = system: A3Hhap II (Homo sapiens)

HIV-1 5'UTR RNA (nt 1-497)
Kd [1]: 0.03 nM | Kd (A3G (Homo sapiens)): 6.36 nM | Kd (A3Hhap II (Homo sapiens)): 0.52 nM
